For one data set, the system named is XBP-1^−/− B cells. The experiment in a line: Ig production by retrovirally transduced XBP-1-/- primary B cells (ELISA). It counts as cell-based, mouse. The following applies: LPS 10 μg/ml 72 h. The procedure: (§1) Assays to measure immunoglobulin or cytokine levels in culture supernatants were performed as described (e.g., Hodge et al., 1996 Immunity. 4:397-405 or Science. 1996 274:1903-5).
(§2) The XBP-1 cDNAs for the unspliced (XBP-1u/s) and the spliced (XBP-1s) forms were PCR-amplified from the total RNA of untreated and tunicamycin treated NIH3T3 cells, respectively, with a primer set (5′-[…]-3′ (SEQ ID NO: 7) and 5′-[…]-3′) (SEQ ID NO: 8). XBP-1u form was generated by a PCR-based mutagenesis from XBP-unspliced/s cDNA so that the two G residues at position 532 and 535 were changed to A without changing amino acid sequences in the XBP-1u open reading frame. Numbers are based on the sequences from gene bank database (NM_013842 [gi:13775155]). These XBP-1 cDNAs were inserted into the GFP-RV retroviral vector by using blunt end ligation (Sambrook et al., 1989). EFFECTENE transfection (Quiagen) was used to introduce the DNA into the Phoenix cell line as described by manufacturer (e.g., Reimold et al., 2001 Nature. 412:300-7 or Int Immunol. 2001 13:241-8). Viral supernatants were harvested after 48 hours and frozen at −80° C. for later use. B cells were purified from mouse spleens using CD43 depletion or positive selection with B220+ magnetic beads as described by the manufacturer (MidiMacs, Miltenyi Biotech). B cell purity was generally near 95% as confirmed by flow cytometry. The B cells (10^6 cells /ml) were then activated in culture with LPS 10 μg/ml and F (ab′)2 anti-IgM (5 μg/ml Southern Biotechnology Associates Inc.) for 24 hours. The 1 ml of activated B cells (10^6 cells/ml) were mixed with 4 μg of polybrene and 1 ml of virus-containing supernatant and spun at 1000 g for 45 minutes at 24° C. Cells were incubated for 24-36 h at 37° C. and then GFP+ cells were flow sorted and returned to culture with and without stimulation.
The effects of these three different forms of XBP-1 on Ig secretion were compared in wild type and XBP-1^−/− B cells. In vitro activated splenic B cells were transduced using retroviruses expressing bicistronic mRNA encoding XBP-1u/s, XBP-1s, XBP-1u or control GFP. In FIGS. 5(A) and (B) purified B cells from wt and XBP-1^−/− mice were activated in culture with LPS 10 μg/ml and F (ab′)2 anti-IgM (5 μg/ml) for 24 hours. Retroviral transduction with GFP alone (GFP-Rv), XBP-1u/s (XBP-1u/s GFP Rv), XBP-1s (XBP-1s GFP Rv) or XBP-1u (XBP-1u GFP Rv) of activated B cells was performed. Cells were incubated for 24-36 h at 37° C. and then GFP+ cells were flow sorted and then returned to culture with LPS stimulation (10 μg/ml) for 72 h. IgM panel(A) and IgG2b panel (B) production analyzed by ELISA from culture supernatants of stimulated B cells. Experiments were done at least three times and standard deviation is shown.

A further data set concerns XBP-1s. The experiment in a line: UPRE-luciferase reporter in NIH3T3 cells. In kind it is cell-based. As for the experimental part: (A) Ubiquitination of XBP-1 in HeLa cells were cotransfected with XBP-1u and His-tagged ubiquitin expression plasmids. (B) Degradation rates of XBP-1u and XBP-1s proteins were determined by pulse labeling J558 cells with ^35S Met/Cys for 1 hr and chasing for the indicated times. (C) Effect of XBP-1u on XBP-1s dependent UPRE activation in PI-treated NIH3T3 cells with 8-fold excess of XBP-1u plasmids. Transfected cells were treated with MG-132 for 16 hrs before harvesting for luciferase assays. Values represent fold induction of activity compared to the reporter alone after normalizing to Renilla. (D) Generation and expression of lysine to arginine XBP-1u mutants. Two or three lysine residues in the C-terminus of XBP-1u were replaced by arginine to generate XBP-1uKK (235, 252) and XBP-1uKKK(146, 235, 252) by site-directed mutagenesis. dn-XBP contains the N-terminal 188 aa of XBP-1u. Western blot analysis was performed with NIH3T3 extracts transfected with the indicated plasmids. E) Inhibition of XBP-1 dependent activation of the UPRE reporter in NIH 3T3 cells by XBP-1u lysine to arginine mutants.
Two or three lysine residues in the C-terminus of XBP-1u were replaced by arginines to generate XBP-1uKK (K235R, K252R) and XBP-1uKKK(K146R, K235R, K252R) by site-directed mutagenesis (Iwakoshi et al.2003 Nature Immunology 4: 321-329). dn-XBP contains the N-terminal 188 aa of XBP-1u. NTH3T3 cells were transfected by using the Lipofectamine2000 reagent as recommended by the manufacturer (Invitrogen, Carlsbad, Calif.) with indicated amount of UPRE (UPR element) reporter (Wang et al. 2000 J Biol Chem 275: 27013-27020) and various effector plasmids. Cells were treated for 16 hours before harvest in certain experiments. Cells were lysed in passive lysis buffer for dual luciferase assays according to the manufacturer's protocol (Promega, Madison, Wis.).
For orientation: In a reporter assay the amount or activity of a reporter protein is the signal.

In another data set the test system is IL-6. Nature of the data set: IL-6 production by retrovirally transduced wt and XBP-1-/- B cells (ELISA, Northern blot). The following applies: wild type and XBP-1-/- cells. In kind it is cell-based, murine. The procedure: as §1, §2
In human multiple myeloma cells, XBP-1 was induced by IL-6 treatment and implicated in the proliferation of malignant plasma cells (Wen et al., 1999). However, no role for IL-6 in upregulating XBP-1 transcripts or in mediating splicing of XBP-1 RNA in mature B cells has been described (FIG. 6A). The ability of XBP-1 to induce IL-6 production in wt and XBP-1^−/− primary B cells was tested. As described above, in vitro activated murine splenic B cells were transduced using retroviruses expressing bicistronic mRNA for XBP-1u/s, XBP-1s, XBP-1u and control GFP. After cell sorting, GFP^+ cells were stimulated with LPS and assayed for cytokine production after 72 h. In FIG. 6 panel (A) purified B cells from wt and XBP-1^−/− mice were activated in culture with LPS 10 μg/ml and F(ab′)2 anti-IgM (5 μg/ml ) for 24 hours. Retroviral transduction with GFP alone (GFP-Rv), XBP-1u/s (XBP-1 u/s GFP Rv), XBP-1s (XBP-1s GFP Rv) or XBP-1u (XBP-1u GFP Rv) of activated B cells was performed. Cells were incubated for 24-36 h at 37° C. and then GFP+ cells were flow sorted and then returned to culture with LPS stimulation (10 μg/ml) for 72 h. Cytokine production was analyzed by ELISA from culture supernatants of stimulated B cells. Experiments were done at least three times and standard deviation is shown. In panel (B) Total RNAs were prepared from stimulated B cells above and XBP-1 mRNA levels were determined by Northern blot analysis with γ-actin control

A further data set concerns XBP-1. The experiment in a line: XBP-luciferase reporter in NIH3T3 cells. In kind it is cell-based. The following applies: in the presence of 5 uM MG-132; with unspliced XBP-1 (41.9 without). The procedure: The fold induction of luciferase was measured in NIH3T3 cells bearing XBP-luciferase. The constructs included four copies of the XBP-1 target sequence TGGATGACGTGTACA (SEQ ID NO: 9) fused to the minimal promoter of the mouse RANTES gene (Clauss et al. Nucleic Acids Research 1996. 24:1855) or five copies of the ATF6/XBP-1 target […] (SEQ ID NO: 10) and comprising −53/+45 of the cfos promoter (J. Biol. Chem. 275:27013). In the presence of 5 uM MG-132, the presence of unspliced XBP-1 inhibits the fold induction of luciferase from 41.9 to 5.8. Thus, in the presence of proteasome inhibitors, the unspliced protein blocks the function of the spliced protein.

Consider one molecule from patent publication US20040170622A1, “Methods and compositions for modulating XBP-1 activity” (President and Fellows of Harvard College, priority 2002, published 2004).

B1: XBP-1u: murine XBP-1 with point mutations at loop positions −1 and +3; yields only unspliced 33 K protein (protein)
chain: MVVVAAAPSAATAAPKVLLLSGQPASGGRALPLMVPGPRAAGSEASGTPQARKRQRLTHLSPEEKALRRKLKNRVAAQTARDRKKARMSELEQQVVDLEEENHKLQLENQLLREKTHGLVVENQELRTRLGMDTLDPDEVPEVEAKGSGVRLVAGSAESAALRLCAPLQQVQAQLSPPQNIFPWTLTLLPLQILSLISFWAFWTSWTLSCFSNVLPQSLLVWRNSQRSTQKDLVPYQPPFLCQWGPHQPSWKPLMNSFVLTMYTPSL
For the molecule B1, in the data set with XBP-1^−/− B cells, the “secretion of IgG2b compared to control cells” value was “unable to increase IgG secretion” and the “secretion of IgM compared to control cells” value is on record as “unable to increase IgM secretion”. Further, the UPRE reporter activity result in the data set on XBP-1s (in the absence of treatment) is listed as “but not XBP-1u, greatly increased reporter activity”. For the same molecule, the “effect on transactivation of UPRE reporter by XBP-1s” value in the data set with XBP-1s (in the presence of MG-132, 16 hrs, 8-fold excess of XBP-1u plasmid) is on record as “significantly suppressed transactivation of the reporter by XBP-1s”. For the same molecule, the IL-6 amounts expressed result in the data set with IL-6 was “moderate amounts of IL-6”. For the same molecule, the “fold induction of luciferase” value in the data set with XBP-1 is reported as 5.8.
